Assay results published in PMC12047801 (PLOS Pathogens, 2025).

Experiments:
[1] = target: T1, Recombinant USP7-TRAF protein (human, UniProt Q93009 1-208); test: SPR; details: both partners purified
T1 construct: also called USP7-TRAF domain

GST-USP7-murine TRAF WT = target: T2, GST-USP7-murine TRAF WT (murine, UniProt Q6A4J8 1-208); test: pull-down; details: both partners purified
T2 construct: also called GST-mUSP7-TRAF WT; murine USP7-TRAF

[2] = target: USP7 (endogenous in SLK.iBAC-GFP cells) (human (endogenous in SLK.iBAC-GFP), UniProt Q93009 1-1102); test: cell-based or functional assay
Chain of USP7 (endogenous in SLK.iBAC-GFP cells) (Q93009 whole entry): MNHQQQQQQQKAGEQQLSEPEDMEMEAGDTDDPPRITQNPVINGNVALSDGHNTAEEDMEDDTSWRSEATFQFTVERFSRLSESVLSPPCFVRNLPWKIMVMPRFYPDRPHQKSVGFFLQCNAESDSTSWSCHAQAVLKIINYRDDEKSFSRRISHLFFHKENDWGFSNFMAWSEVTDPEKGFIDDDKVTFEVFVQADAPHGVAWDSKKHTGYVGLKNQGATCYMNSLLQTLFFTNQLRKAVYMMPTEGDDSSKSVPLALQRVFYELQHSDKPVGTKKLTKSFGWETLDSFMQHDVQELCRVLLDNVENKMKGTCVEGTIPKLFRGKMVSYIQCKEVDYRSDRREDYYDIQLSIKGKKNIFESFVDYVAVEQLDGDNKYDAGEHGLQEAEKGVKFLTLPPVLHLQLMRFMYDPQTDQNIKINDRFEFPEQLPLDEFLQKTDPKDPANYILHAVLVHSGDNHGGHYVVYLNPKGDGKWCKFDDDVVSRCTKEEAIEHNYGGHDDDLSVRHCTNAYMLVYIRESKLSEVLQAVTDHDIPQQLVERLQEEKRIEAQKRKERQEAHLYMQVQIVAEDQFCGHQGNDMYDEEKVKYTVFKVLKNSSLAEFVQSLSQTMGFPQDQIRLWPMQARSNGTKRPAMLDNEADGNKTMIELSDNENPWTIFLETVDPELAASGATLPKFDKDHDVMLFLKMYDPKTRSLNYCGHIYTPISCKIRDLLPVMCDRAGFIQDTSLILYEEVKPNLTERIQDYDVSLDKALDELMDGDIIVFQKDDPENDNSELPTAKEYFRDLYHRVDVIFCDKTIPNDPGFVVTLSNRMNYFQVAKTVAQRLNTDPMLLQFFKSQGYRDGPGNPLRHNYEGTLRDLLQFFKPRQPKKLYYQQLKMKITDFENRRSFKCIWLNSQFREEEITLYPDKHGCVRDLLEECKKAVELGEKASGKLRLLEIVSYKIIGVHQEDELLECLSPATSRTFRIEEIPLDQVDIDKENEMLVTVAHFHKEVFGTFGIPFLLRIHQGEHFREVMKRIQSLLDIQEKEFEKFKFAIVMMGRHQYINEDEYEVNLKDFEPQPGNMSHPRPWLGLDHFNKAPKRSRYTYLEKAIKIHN

[3] = target: T1, Recombinant USP7-TRAF protein; test: SPR; Biacore T200; USP7-TRAF immobilised on a CM5 chip by amine coupling to about 8000 RU; gradient concentrations of peptides injected at 30 μL/min; running buffer 0.05% (v/v) Tween 20 in PBS; details: both partners purified

T1 sequence (Q93009 1-208): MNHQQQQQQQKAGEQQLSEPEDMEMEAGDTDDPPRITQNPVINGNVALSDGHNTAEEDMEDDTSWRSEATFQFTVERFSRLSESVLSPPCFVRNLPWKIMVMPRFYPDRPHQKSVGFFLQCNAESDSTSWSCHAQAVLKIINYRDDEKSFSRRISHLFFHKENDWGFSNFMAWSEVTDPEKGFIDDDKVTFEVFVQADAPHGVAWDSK
T2 sequence (Q6A4J8 1-208): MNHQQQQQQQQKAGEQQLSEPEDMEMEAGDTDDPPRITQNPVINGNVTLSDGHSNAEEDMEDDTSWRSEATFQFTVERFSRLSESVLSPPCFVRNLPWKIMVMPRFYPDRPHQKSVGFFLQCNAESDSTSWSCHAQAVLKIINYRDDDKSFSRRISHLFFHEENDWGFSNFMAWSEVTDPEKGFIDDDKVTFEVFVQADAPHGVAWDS

B1: p8 (peptide)
peptide: Ac-VNQSASQSSN-NH2
notes: also called peptide p8; human-derived p8
Question: How did the Kd [1] turn out when B1 was run?
Answer: Its Kd is 3.16 µM.

Question: Does Ac-YGRKKRRQRRRGGVSQSPSQNSN-NH2 (also called murine-derived p8) [p8-m] bind (GST-USP7-murine TRAF WT)?
Answer: Result: binds

Question: Which “IC50 of inhibition of KSHV lytic reactivation in SLK.iBAC-GFP cells (blocks OTUD4-USP7)” value [2] does the source give for Ac-YGRKKRRQRRRGGVNQSASQSSN-NH2 [p8 fused to an N-terminal Tat(47-57) peptide via a GG linker] here?
Answer: The value was 52.6 µM.

Question: How did the Kd [3] turn out when Ac-EVADEDNSEI-NH2 (also called peptide p2) [p2] was run?
Answer: The Kd was 9.02 µM.
